# Measurements: paper PMC9482650, “Quantitative fragmentomics allow affinity mapping of interactomes” (Nature Communications, 2022)
# T1: LIN7A, O14910
# T1 sequence (O14910 103-200, limits assumed, looked up): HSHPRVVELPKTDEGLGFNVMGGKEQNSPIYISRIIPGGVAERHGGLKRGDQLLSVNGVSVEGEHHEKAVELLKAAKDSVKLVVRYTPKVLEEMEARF
# T2: LNX2_2, Q8N448
# T2 sequence (Q8N448 334-432, limits assumed, looked up): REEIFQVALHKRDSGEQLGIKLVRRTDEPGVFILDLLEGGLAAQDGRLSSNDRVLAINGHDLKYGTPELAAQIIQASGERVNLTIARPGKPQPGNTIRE
# T3: NHERF3_4, Q5T2W1
# T3 sequence (Q5T2W1 373-468, limits assumed, looked up): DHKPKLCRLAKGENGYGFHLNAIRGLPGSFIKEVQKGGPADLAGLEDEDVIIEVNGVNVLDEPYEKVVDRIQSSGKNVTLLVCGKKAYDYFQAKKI
# T4: HTRA4, P83105
# T4 sequence (P83105 378-476, limits assumed, looked up): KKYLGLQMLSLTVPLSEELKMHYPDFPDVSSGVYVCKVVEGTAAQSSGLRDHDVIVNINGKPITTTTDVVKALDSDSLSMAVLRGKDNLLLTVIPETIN
# T5: TX1BP3, O14907
# T5 sequence (O14907 10-122, limits assumed, looked up): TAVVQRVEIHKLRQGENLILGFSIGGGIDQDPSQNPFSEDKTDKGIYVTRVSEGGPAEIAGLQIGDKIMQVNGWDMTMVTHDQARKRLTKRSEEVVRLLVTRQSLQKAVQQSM
# T6: MPP2, Q14168
# T6 sequence (Q14168 180-250, limits assumed, looked up): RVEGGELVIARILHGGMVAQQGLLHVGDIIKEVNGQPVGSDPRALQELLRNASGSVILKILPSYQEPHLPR
# T7: GRIP1_7, Q9Y3R0
# T7 sequence (Q9Y3R0 999-1096, limits assumed, looked up): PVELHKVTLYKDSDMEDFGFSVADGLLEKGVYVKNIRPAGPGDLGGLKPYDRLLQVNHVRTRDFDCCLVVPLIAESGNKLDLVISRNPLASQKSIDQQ
# T8: PCLO, Q9Y6V0
# T8 sequence (Q9Y6V0 4491-4600, limits assumed, looked up): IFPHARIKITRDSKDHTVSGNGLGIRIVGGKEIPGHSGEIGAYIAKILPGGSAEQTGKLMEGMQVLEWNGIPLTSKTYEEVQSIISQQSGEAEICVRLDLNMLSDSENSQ
# T9: DFNB31_2, Q9P202
# T9 sequence (Q9P202 274-371, limits assumed, looked up): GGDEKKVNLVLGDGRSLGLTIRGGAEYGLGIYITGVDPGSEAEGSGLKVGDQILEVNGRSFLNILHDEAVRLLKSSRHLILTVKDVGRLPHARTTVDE
# T10: APBA2_2, Q99767
# T10 sequence (Q99767 654-744, limits assumed, looked up): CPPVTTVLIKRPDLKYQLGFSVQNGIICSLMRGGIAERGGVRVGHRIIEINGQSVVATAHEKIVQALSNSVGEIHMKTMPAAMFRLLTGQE
# T11: MPDZ_10, O75970
# T11 sequence (O75970 1624-1722, limits assumed, looked up): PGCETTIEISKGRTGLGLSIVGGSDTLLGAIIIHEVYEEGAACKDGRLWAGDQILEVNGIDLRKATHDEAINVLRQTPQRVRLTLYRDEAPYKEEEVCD
# T12: RADIL, Q96JH8
# T12 sequence (Q96JH8 971-1071, limits assumed, looked up): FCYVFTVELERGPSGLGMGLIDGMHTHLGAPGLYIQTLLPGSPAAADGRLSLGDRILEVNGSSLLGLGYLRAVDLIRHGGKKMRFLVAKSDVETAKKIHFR
# Target: MAGI1_1, Q96QZ7
# Sequence (Q96QZ7 1-106): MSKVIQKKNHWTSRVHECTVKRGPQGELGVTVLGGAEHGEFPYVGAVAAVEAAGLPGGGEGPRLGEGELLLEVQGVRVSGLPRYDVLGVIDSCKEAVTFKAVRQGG
# Experiment: holdup assay
# Set-up: key: below the threshold = too weak to quantify, mostly under pKd 3.1 to 4
# Conditions: plain residues with an end cap or a label only (N-terminal biotin on a linker: ado-ado)
row,pKd,Binder
1,below the threshold,"AHGSTRDQSI [KCNB1, Q14721]"
2,below the threshold,"PALKNGQYWV [CSPG4, Q6UVK1]"

# Target: T1, LIN7A, O14910
# Experiment: holdup assay
# Set-up: key: below the threshold = too weak to quantify, mostly under pKd 3.1 to 4
# Conditions: plain residues with an end cap or a label only (N-terminal biotin on a linker: ado-ado)
row,pKd,Binder
1,below the threshold,"AHGSTRDQSI [KCNB1, Q14721]"
2,below the threshold,"PALKNGQYWV [CSPG4, Q6UVK1]"

# Target: T2, LNX2_2, Q8N448
# Experiment: holdup assay
# Set-up: key: below the threshold = too weak to quantify, mostly under pKd 3.1 to 4
# Conditions: plain residues with an end cap or a label only (N-terminal biotin on a linker: ado-ado)
row,pKd,Binder
1,below the threshold,"AHGSTRDQSI [KCNB1, Q14721]"
2,5.28,"PALKNGQYWV [CSPG4, Q6UVK1]"

# Target: T3, NHERF3_4, Q5T2W1
# Experiment: holdup assay
# Set-up: key: below the threshold = too weak to quantify, mostly under pKd 3.1 to 4
# Conditions: plain residues with an end cap or a label only (N-terminal biotin on a linker: ado-ado)
row,pKd,Binder
1,below the threshold,"AHGSTRDQSI [KCNB1, Q14721]"
2,below the threshold,"PALKNGQYWV [CSPG4, Q6UVK1]"

# Target: FRMPD2_2, Q68DX3
# Sequence (Q68DX3 944-1038): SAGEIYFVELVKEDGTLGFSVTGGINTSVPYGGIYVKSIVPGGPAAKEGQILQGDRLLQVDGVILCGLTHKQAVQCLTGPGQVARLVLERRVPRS
# Experiment: holdup assay
# Set-up: key: below the threshold = too weak to quantify, mostly under pKd 3.1 to 4
# Conditions: plain residues with an end cap or a label only (N-terminal biotin on a linker: ado-ado)
row,pKd,Binder
1,below the threshold,"AHGSTRDQSI [KCNB1, Q14721]"
2,below the threshold,"PALKNGQYWV [CSPG4, Q6UVK1]"

# Target: T4, HTRA4, P83105
# Experiment: holdup assay
# Set-up: key: below the threshold = too weak to quantify, mostly under pKd 3.1 to 4
# Conditions: plain residues with an end cap or a label only (N-terminal biotin on a linker: ado-ado)
row,pKd,Binder
1,below the threshold,"AHGSTRDQSI [KCNB1, Q14721]"
2,4.14,"PALKNGQYWV [CSPG4, Q6UVK1]"

# Target: T5, TX1BP3, O14907
# Experiment: holdup assay
# Set-up: key: below the threshold = too weak to quantify, mostly under pKd 3.1 to 4
# Conditions: plain residues with an end cap or a label only (N-terminal biotin on a linker: ado-ado)
row,pKd,Binder
1,4.1,"AHGSTRDQSI [KCNB1, Q14721]"
2,4.19,"PALKNGQYWV [CSPG4, Q6UVK1]"

# Target: TJP1_2, Q07157
# Sequence (Q07157 181-274): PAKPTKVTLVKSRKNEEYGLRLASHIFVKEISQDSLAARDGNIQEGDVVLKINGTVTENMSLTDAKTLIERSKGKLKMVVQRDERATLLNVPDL
# Experiment: holdup assay
# Set-up: key: below the threshold = too weak to quantify, mostly under pKd 3.1 to 4
# Conditions: plain residues with an end cap or a label only (N-terminal biotin on a linker: ado-ado)
row,pKd,Binder
1,below the threshold,"AHGSTRDQSI [KCNB1, Q14721]"
2,4.69,"PALKNGQYWV [CSPG4, Q6UVK1]"

# Target: T6, MPP2, Q14168
# Experiment: holdup assay
# Set-up: key: below the threshold = too weak to quantify, mostly under pKd 3.1 to 4
# Conditions: plain residues with an end cap or a label only (N-terminal biotin on a linker: ado-ado)
row,pKd,Binder
1,below the threshold,"AHGSTRDQSI [KCNB1, Q14721]"
2,below the threshold,"PALKNGQYWV [CSPG4, Q6UVK1]"

# Target: Inadl_8, Q8NI35
# Sequence (Q8NI35 1425-1530): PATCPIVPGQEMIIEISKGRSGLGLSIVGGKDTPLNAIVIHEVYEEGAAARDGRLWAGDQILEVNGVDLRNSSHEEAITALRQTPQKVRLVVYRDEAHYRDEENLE
# Experiment: holdup assay
# Set-up: key: below the threshold = too weak to quantify, mostly under pKd 3.1 to 4
# Conditions: plain residues with an end cap or a label only (N-terminal biotin on a linker: ado-ado)
row,pKd,Binder
1,below the threshold,"AHGSTRDQSI [KCNB1, Q14721]"
2,3.5,"PALKNGQYWV [CSPG4, Q6UVK1]"

# Target: FRMPD2_3, Q68DX3
# Sequence (Q68DX3 1073-1166): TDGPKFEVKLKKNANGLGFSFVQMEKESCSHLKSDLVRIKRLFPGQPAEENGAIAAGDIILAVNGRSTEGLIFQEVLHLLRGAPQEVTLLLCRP
# Experiment: holdup assay
# Set-up: key: below the threshold = too weak to quantify, mostly under pKd 3.1 to 4
# Conditions: plain residues with an end cap or a label only (N-terminal biotin on a linker: ado-ado)
row,pKd,Binder
1,below the threshold,"AHGSTRDQSI [KCNB1, Q14721]"
2,below the threshold,"PALKNGQYWV [CSPG4, Q6UVK1]"

# Target: IL16_3, Q14005
# Sequence (Q14005 1107-1207): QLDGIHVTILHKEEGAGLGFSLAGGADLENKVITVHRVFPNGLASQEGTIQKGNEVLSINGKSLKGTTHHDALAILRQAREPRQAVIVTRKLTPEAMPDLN
# Experiment: holdup assay
# Set-up: key: below the threshold = too weak to quantify, mostly under pKd 3.1 to 4
# Conditions: plain residues with an end cap or a label only (N-terminal biotin on a linker: ado-ado)
row,pKd,Binder
1,below the threshold,"AHGSTRDQSI [KCNB1, Q14721]"
2,below the threshold,"PALKNGQYWV [CSPG4, Q6UVK1]"

# Target: ARHGEF12, Q9NZN5-2
# Sequence (Q9NZN5 other isoform, or with tags, fused parts or gaps): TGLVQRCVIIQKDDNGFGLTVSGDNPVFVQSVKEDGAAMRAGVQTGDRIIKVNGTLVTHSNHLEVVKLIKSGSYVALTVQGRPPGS
# Experiment: holdup assay
# Set-up: key: below the threshold = too weak to quantify, mostly under pKd 3.1 to 4
# Conditions: plain residues with an end cap or a label only (N-terminal biotin on a linker: ado-ado)
row,pKd,Binder
1,below the threshold,"AHGSTRDQSI [KCNB1, Q14721]"
2,below the threshold,"PALKNGQYWV [CSPG4, Q6UVK1]"

# Target: MAGI3_2, Q5TCQ9
# Sequence (Q5TCQ9 398-503): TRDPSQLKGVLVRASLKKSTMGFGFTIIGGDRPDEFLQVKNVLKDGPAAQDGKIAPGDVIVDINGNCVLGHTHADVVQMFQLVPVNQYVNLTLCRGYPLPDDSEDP
# Experiment: holdup assay
# Set-up: key: below the threshold = too weak to quantify, mostly under pKd 3.1 to 4
# Conditions: plain residues with an end cap or a label only (N-terminal biotin on a linker: ado-ado)
row,pKd,Binder
1,below the threshold,"AHGSTRDQSI [KCNB1, Q14721]"
2,4.03,"PALKNGQYWV [CSPG4, Q6UVK1]"

# Target: Inadl_10, Q8NI35
# Sequence (Q8NI35 1673-1763): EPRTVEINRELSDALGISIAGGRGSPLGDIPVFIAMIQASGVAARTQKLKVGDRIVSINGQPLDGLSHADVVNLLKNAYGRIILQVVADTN
# Experiment: holdup assay
# Set-up: key: below the threshold = too weak to quantify, mostly under pKd 3.1 to 4
# Conditions: plain residues with an end cap or a label only (N-terminal biotin on a linker: ado-ado)
row,pKd,Binder
1,below the threshold,"AHGSTRDQSI [KCNB1, Q14721]"
2,below the threshold,"PALKNGQYWV [CSPG4, Q6UVK1]"

# Target: MAGI1_2, Q96QZ7
# Sequence (Q96QZ7 456-580): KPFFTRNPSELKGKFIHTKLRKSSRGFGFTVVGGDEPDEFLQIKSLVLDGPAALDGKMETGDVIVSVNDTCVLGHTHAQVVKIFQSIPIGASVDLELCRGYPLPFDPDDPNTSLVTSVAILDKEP
# Experiment: holdup assay
# Set-up: key: below the threshold = too weak to quantify, mostly under pKd 3.1 to 4
# Conditions: plain residues with an end cap or a label only (N-terminal biotin on a linker: ado-ado)
row,pKd,Binder
1,below the threshold,"AHGSTRDQSI [KCNB1, Q14721]"
2,below the threshold,"PALKNGQYWV [CSPG4, Q6UVK1]"

# Target: Inadl_5, Q8NI35
# Sequence (Q8NI35 673-780): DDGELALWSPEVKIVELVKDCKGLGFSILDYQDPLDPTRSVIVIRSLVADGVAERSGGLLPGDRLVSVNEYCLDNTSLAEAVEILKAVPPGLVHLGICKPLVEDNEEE
# Experiment: holdup assay
# Set-up: key: below the threshold = too weak to quantify, mostly under pKd 3.1 to 4
# Conditions: plain residues with an end cap or a label only (N-terminal biotin on a linker: ado-ado)
row,pKd,Binder
1,below the threshold,"AHGSTRDQSI [KCNB1, Q14721]"
2,4.31,"PALKNGQYWV [CSPG4, Q6UVK1]"

# Target: LNX1_3, Q8TBB1
# Sequence (Q8TBB1 500-596): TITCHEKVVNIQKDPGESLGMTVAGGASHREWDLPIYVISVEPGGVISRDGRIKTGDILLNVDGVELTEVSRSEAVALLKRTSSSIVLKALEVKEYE
# Experiment: holdup assay
# Set-up: key: below the threshold = too weak to quantify, mostly under pKd 3.1 to 4
# Conditions: plain residues with an end cap or a label only (N-terminal biotin on a linker: ado-ado)
row,pKd,Binder
1,below the threshold,"AHGSTRDQSI [KCNB1, Q14721]"
2,below the threshold,"PALKNGQYWV [CSPG4, Q6UVK1]"

# Target: Inadl_9, Q8NI35
# Sequence (Q8NI35 1530-1615): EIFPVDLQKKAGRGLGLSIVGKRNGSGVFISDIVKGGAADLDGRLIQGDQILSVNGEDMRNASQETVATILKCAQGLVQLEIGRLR
# Experiment: holdup assay
# Set-up: key: below the threshold = too weak to quantify, mostly under pKd 3.1 to 4
# Conditions: plain residues with an end cap or a label only (N-terminal biotin on a linker: ado-ado)
row,pKd,Binder
1,below the threshold,"AHGSTRDQSI [KCNB1, Q14721]"
2,4.16,"PALKNGQYWV [CSPG4, Q6UVK1]"

# Target: T7, GRIP1_7, Q9Y3R0
# Experiment: holdup assay
# Set-up: key: below the threshold = too weak to quantify, mostly under pKd 3.1 to 4
# Conditions: plain residues with an end cap or a label only (N-terminal biotin on a linker: ado-ado)
row,pKd,Binder
1,3.48,"AHGSTRDQSI [KCNB1, Q14721]"
2,5.63,"PALKNGQYWV [CSPG4, Q6UVK1]"

# Target: T8, PCLO, Q9Y6V0
# Experiment: holdup assay
# Set-up: key: below the threshold = too weak to quantify, mostly under pKd 3.1 to 4
# Conditions: plain residues with an end cap or a label only (N-terminal biotin on a linker: ado-ado)
row,pKd,Binder
1,below the threshold,"AHGSTRDQSI [KCNB1, Q14721]"
2,below the threshold,"PALKNGQYWV [CSPG4, Q6UVK1]"

# Target: T9, DFNB31_2, Q9P202
# Experiment: holdup assay
# Set-up: key: below the threshold = too weak to quantify, mostly under pKd 3.1 to 4
# Conditions: plain residues with an end cap or a label only (N-terminal biotin on a linker: ado-ado)
row,pKd,Binder
1,below the threshold,"AHGSTRDQSI [KCNB1, Q14721]"
2,below the threshold,"PALKNGQYWV [CSPG4, Q6UVK1]"

# Target: TJP2_1, Q9UDY2
# Sequence (Q9UDY2 24-128): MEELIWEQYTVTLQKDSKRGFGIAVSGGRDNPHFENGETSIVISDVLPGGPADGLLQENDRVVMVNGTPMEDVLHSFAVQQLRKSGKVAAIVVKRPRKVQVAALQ
# Experiment: holdup assay
# Set-up: key: below the threshold = too weak to quantify, mostly under pKd 3.1 to 4
# Conditions: plain residues with an end cap or a label only (N-terminal biotin on a linker: ado-ado)
row,pKd,Binder
1,below the threshold,"AHGSTRDQSI [KCNB1, Q14721]"
2,4.6,"PALKNGQYWV [CSPG4, Q6UVK1]"

# Target: T10, APBA2_2, Q99767
# Experiment: holdup assay
# Set-up: key: below the threshold = too weak to quantify, mostly under pKd 3.1 to 4
# Conditions: plain residues with an end cap or a label only (N-terminal biotin on a linker: ado-ado)
row,pKd,Binder
1,below the threshold,"AHGSTRDQSI [KCNB1, Q14721]"
2,below the threshold,"PALKNGQYWV [CSPG4, Q6UVK1]"

# Target: T11, MPDZ_10, O75970
# Experiment: holdup assay
# Set-up: key: below the threshold = too weak to quantify, mostly under pKd 3.1 to 4
# Conditions: plain residues with an end cap or a label only (N-terminal biotin on a linker: ado-ado)
row,pKd,Binder
1,below the threshold,"AHGSTRDQSI [KCNB1, Q14721]"
2,below the threshold,"PALKNGQYWV [CSPG4, Q6UVK1]"

# Target: T12, RADIL, Q96JH8
# Experiment: holdup assay
# Set-up: key: below the threshold = too weak to quantify, mostly under pKd 3.1 to 4
# Conditions: plain residues with an end cap or a label only (N-terminal biotin on a linker: ado-ado)
row,pKd,Binder
1,below the threshold,"AHGSTRDQSI [KCNB1, Q14721]"
2,5.17,"PALKNGQYWV [CSPG4, Q6UVK1]"
